Assays:
GAL13-BSA = molecular target: T1, GAL13-BSA (Bos taurus, UniProt P02769); experiment: Dissociation constant measurement, Biacore T200 (Example 8); assay type: binding; conditions: Biacore T200, sensor chip CM5; ligand GAL13-BSA
T1 construct: purchased Sigma-Aldrich Co. LLC
Method: The dissociation constant (Kd value) of the monoclonal antibody SJ-5 was measured by the following approach: BSA containing AGEs derived from glyceraldehyde (Glycer-AGEs-BSA) was diluted with a 10 mM sodium acetate solution (pH 4.0) to prepare a ligand solution with a final concentration of 100 μg/mL. Biacore T200 (GE Healthcare Japan Corp.) was used for the immobilization of the ligand and the calculation of the KD value. The ligand solution was immobilized onto sensor chip CM5 (GE Healthcare Japan Corp.) using an amine coupling kit (GE Healthcare Japan Corp.). Subsequently, antibody dilution solutions containing the monoclonal antibody diluted into concentrations from 0 to 400 nM were prepared, and the Kd value was calculated.
BSA chemically bonded to the peak obtained in fractionation by HPLC (GAL13-BSA) was diluted with a 10 mM sodium acetate solution (pH 5.0) to prepare a ligand solution with a final concentration of 25 μg/mL.

CD31 = experiment: Endothelial-to-mesenchymal transition inhibition test, real-time PCR (Example 15); assay type: cell-based, human; conditions: HUVEC; antibody pre-reacted with Glycer-AGEs-BSA
Method: (§1) 10 μL of Glycer-AGEs-BSA (10 mg/mL) prepared in Example 1, PBS, and 90 μL of SJ-5 (10 mg/mL) or a control antibody (10 mg/mL) were added to a 1.5 mL tube (Watson). Alternatively, 90 μL of a PBS solution of control BSA (10 mg/mL) was added. These solutions were left standing at room temperature for 10 minutes. Then, a supernatant was recovered by centrifugation at 14000 rpm for 15 minutes using a centrifuge (Thermo Fisher Scientific Inc.).
(§2) HUVEC was cultured in a 10 cm dish using 10 mL of a medium for HUVEC.
(§3) The cultured HUVEC was washed with 10 mL of PBS. Then, 1 mL of trypsin-EDTA was added thereto and left standing at room temperature for 3 minutes. HUVEC thus left standing was confirmed to be detached from the dish, and trypsin-EDTA was neutralized by the addition of 10 mL of a medium for HUVEC. After the neutralization, the whole amount was transferred to a 50 mL tube and centrifuged at 1500 rpm for 3 minutes using a centrifuge.
(§4) After the centrifugation, the supernatant was discarded, and precipitated cells were resuspended by the addition of 1 mL of a medium for HUVEC. A 10 μL aliquot from the resuspension was mixed with 10 μL of Trypan Blue, and 10 μL thereof was added to a counting chamber. Then, the number of live cells was counted in Auto Cell Counter EVE. The cell suspension was diluted into 2.5×10^5 cells/mL with a medium for HUVEC and inoculated at 400 μL/well to the Matrigel prepared in (1). After the inoculation, each reaction solution prepared in (2) was added at 100 μL/well, followed by culture for 8 hours in a CO2 incubator.
(§5) Each well was washed three times with 1 mL of PBS, and Cell Recovery Solution (Corning Inc.) was added at 500 μL/well.
(§6) The cells and the Matrigel matrix were scraped off using Blue Chip (Watson), recovered into a 1.5 mL tube, and transferred to the 1.5 mL tube after rinsing of each well again with 500 μL of Cell Recovery Solution. The 1.5 mL tube was mixed by inversion five times and then left standing on ice for 1 hour to confirm that the Matrigel matrix was completely degraded. After the Matrigel matrix degradation, a supernatant was discarded by centrifugation at 800 rpm at 4° C. Precipitated cells were gently suspended in 1 mL of ice-cooled PBS and centrifuged at 800 rpm at 4° C. to discard a supernatant. Precipitated cells were gently suspended again in 1 mL of ice-cooled PBS and centrifuged at 800 rpm at 4° C.
(§7) 125 μL of CellAmp Washing Buffer attached to the kit was added to the cells precipitated by centrifugation, and mixed. […]
(§8) After the addition, real-time PCR was performed with QuantStudio™ 12K Flex real-time PCR system (Thermo Fisher Scientific Inc.) to quantify gene expression levels. […]

α-SMA = experiment: as above; assay type: cell-based, human; conditions: HUVEC; antibody pre-reacted with Glycer-AGEs-BSA
Method: as §1, §2, §3, §4, §5, §6, §7, §8

T1 sequence (P02769 25-607): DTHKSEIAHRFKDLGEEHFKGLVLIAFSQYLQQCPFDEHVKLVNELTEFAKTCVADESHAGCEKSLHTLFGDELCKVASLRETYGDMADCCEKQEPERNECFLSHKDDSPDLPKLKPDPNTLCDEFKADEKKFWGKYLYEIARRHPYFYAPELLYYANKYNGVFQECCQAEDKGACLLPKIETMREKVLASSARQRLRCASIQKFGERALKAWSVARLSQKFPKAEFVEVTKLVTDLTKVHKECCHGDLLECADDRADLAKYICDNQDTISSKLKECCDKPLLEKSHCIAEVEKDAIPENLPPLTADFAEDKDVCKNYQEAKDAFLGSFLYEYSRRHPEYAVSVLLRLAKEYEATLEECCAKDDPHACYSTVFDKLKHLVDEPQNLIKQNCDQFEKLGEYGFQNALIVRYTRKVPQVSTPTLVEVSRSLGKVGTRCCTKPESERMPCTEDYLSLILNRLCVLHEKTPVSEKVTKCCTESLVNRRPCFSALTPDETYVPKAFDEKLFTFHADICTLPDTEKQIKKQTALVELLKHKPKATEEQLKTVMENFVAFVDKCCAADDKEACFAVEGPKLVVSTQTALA

B1: SJ-5: mouse monoclonal antibody raised against GAL13-MSA; heavy-chain variable region SEQ ID NO 4, light-chain variable region SEQ ID NO 8 (antibody, listed as Mus musculus, V domains shown)
VH: EVMLVESGGRLVKPGGSLKLSCAASGFTFSSYGMSWVRQTPEKRLEWVATISGGGSYTYYPDSVKGRFTISRDNVKNNLYLQMSSLRSEDTALYYCARRGAYGDYGWFAYWGQGTLVTVSA
VL: DIVLTQSPATLSVTPGDSVSLSCRASQSINNNLHWYQQKSHESPRLLIKCASQSISGIPSRFSGSGSGTDFTLSINSVETEDFGMYFCQQSNSWPLTFGAGTKLELK
GAL13-BSA
  Kd: 0.0875 µM
CD31
  suppression of CD31 decrease caused by Glycer-AGEs-BSA: suppressible
α-SMA
  suppression of α-SMA increase caused by Glycer-AGEs-BSA: suppressible

Source: US12391751B2, “Antibody against advanced glycation end products and use thereof” (Bloom Technology Corporation, priority 2018, dated 2025)
